# B1: Vmp2 (virulence-associated membrane protein 2), full length without the signal peptide (natural protein)
# chain: AESQCEERNDYSRKRPSHKPFTSHQNKQDRSCSSPLPSESCSTSAITPSDSAVRDTSLSRRGLPGMPGDIEWMGFYGSLLAVPTMLSILGIITNYNLGKSYYNSELNAQYYKQSREMLRAHTAKLIQDQEKKFANAGVSWNGMVYGKDGQVNPGAKLPEWNGRVLGGTVANPKSQPVPGSGGAVQGAAAGVGGGTTAGVAAGAGAASAGTGPAQVGGATAGGAGAEAQTGTGAIATGTGTGGAGDAGGSAPVSSGAEQGDAEAGDEARGSEERGDDGTEDRRGGQSEGDDDSDSDGNDEGDAGDAGDAGDA
# notes: Vmp2 (UMAG_01689) of Ustilago maydis SG200, a protein of 335 aa, cloned from genomic DNA without the signal peptide (25 aa as predicted by SignalP-5.0); one TM helix at residues 100-115; The methods say that the Mistics-tag was cleaved off with TEV before SEC; also called UMAG_01689; full length Vmp2; source: E. coli OverExpress C43 (DE3), purified (membrane fraction solubilised with DDM, Ni-NTA, …)
# Target: the molecule itself
# Assay: SEC; Vmp2 on a Superose 6 Increase 10/300 column in SEC buffer with 0.03% DDM
protein,measurement,value
B1,stoichiometry N,2

# — paper PMC8176221, “Identification and Characterization of Two Transmembrane Proteins Required for Virulence of Ustilago maydis” (Frontiers in Plant Science, 2021)
